Measured values published in article PMC3944234.

Target: GAL4-Nef (HIV-1 Nef fused to the GAL4 DNA-binding domain) (HIV-1)
Experiment: two-hybrid

VP16-eEF1A (eEF1A fused to the VP16 activation domain) (from UniProt P68104 1-462) (natural protein)
relative luciferase expression: 1850 r.l.u.
